# Values joined by “and” are separate entries in the source; they are usually repeats but may differ in a detail not shown here. Equal entries are not always repeated. Where two headings read alike, the source gives them in different places.
# T1: human OX40 expressed on cells (human, UniProt P43489 29-277)
# T1 sequence: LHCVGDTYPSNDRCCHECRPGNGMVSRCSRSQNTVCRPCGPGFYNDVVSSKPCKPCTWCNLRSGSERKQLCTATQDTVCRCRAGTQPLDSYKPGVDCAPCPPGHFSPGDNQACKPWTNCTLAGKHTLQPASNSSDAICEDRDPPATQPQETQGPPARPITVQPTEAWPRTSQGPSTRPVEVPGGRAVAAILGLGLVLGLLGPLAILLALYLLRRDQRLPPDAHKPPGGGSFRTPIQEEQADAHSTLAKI
# T2: recombinant soluble human OX40 ECD (residues 1-216) (human, UniProt P43489 29-216)
# T2 construct: Purchased from Creative Biomart and further purified by gel filtration; also called recombinant extracellular domain of human OX40
# T2 sequence: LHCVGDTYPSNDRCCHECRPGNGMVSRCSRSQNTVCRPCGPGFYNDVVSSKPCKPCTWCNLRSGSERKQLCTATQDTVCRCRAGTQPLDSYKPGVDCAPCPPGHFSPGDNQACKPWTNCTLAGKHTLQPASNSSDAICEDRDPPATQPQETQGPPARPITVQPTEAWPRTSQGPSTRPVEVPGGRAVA
# Columns and labels:
# [1] = target: T1, human OX40 expressed on cells; assay: cell-based or functional assay
# [2] = target: T1, human OX40 expressed on cells; assay: cell-based or functional assay; remark: listed apart in the source
# [3] = target: T1, human OX40 expressed on cells; assay: cell-based or functional assay; remark: listed apart in the source
# [4] = target: T1, human OX40 expressed on cells; assay: competition by flow cytometry on Jurkat-NF-κB-huOX40 cells; competitor: ALEXA FLUOR 647-labeled Hu3738 at 2 µg/mL
# Procedure: Analysis was performed by flow cytometry.
# [5] = target: T2, recombinant soluble human OX40 ECD …; assay: SPR (Biacore T200, 25 °C), antibody captured by anti-Fc, OX40 ECD as analyte
# Procedure: The binding kinetics of an anti-OX40 antibody to recombinant soluble OX40 ECD (extracellular domain) were determined by surface plasmon resonance-based measurements made on a Biacore T200 instrument (GE Healthcare) at 25° C. using an anti-Fc capture assay approach. Recombinant extracellular domains (ECDs) of human OX40 (residues 1-216) and rhesus macaque OX40 (residues 28-214) were purchased (Creative Biomart) and further purified by gel filtration using Superdex200 (GE Healthcare) in 10 mM 4-(2-hydroxyethyl)-1-piperazineethanesulfonic acid (HEPES), pH 7.4, 150 mM NaCl, 3 mM ethylenediaminetetraacetic acid (EDTA). Rhesus macaque (Macaca mulatta) OX40 is identical to cynomolgus monkey (Macaca fascicularis) OX40 (SEQ ID NO:2) at the amino acid level. Chip preparation and binding kinetic measurements were made in the assay buffer HBS-EP+(10 mM HEPES, pH 7.4, 150 mM NaCl, 3 mM EDTA, 0.05% Tween 20). For anti-Fc capture chip preparation, approximately 2000 Resonance Units (RU) of goat anti-human IgG Fc polyclonal antibody (Thermo Fisher Scientific Inc.), diluted to 25 μg/mL in 10 mM sodium acetate (pH 4.5), was directly immobilized across a CMS biosensor chip using a standard amine coupling kit according to manufacturer's instructions and procedures. Unreacted moieties on the biosensor surface were blocked with ethanolamine. For binding kinetics measurements each assay cycle consisted of the following steps: 1) capture of test anti-OX40 antibody on test surface only; 2) analyte injection (OX40 ECD or buffer only) over both reference and test surface, 240 μL at 80 μL/min, after which the dissociation was monitored for 900 seconds at 80 μL/min; 3) regeneration of capture surface by 10 mM Glycine-HCl, pH 1.5 injections over both reference and test surface. During the assay, all measurements were referenced against the capture surface alone (i.e., with no captured test antibody) and buffer-only injections were used for double referencing. OX40 injections ranged in concentration from 900 nM or 300 nM to 11.11 nM in a randomized 9- or 3-fold dilution series, respectively. Data were processed and fitted globally to a 1:1 binding model using Biacore T200 Evaluation software to determine the binding kinetic rate constants, kₐ (M⁻¹s⁻¹) and kd (s¹), and the equilibrium dissociation constant KD (M).
# [6] = target: T1, human OX40 expressed on cells; assay: flow cytometry competition on human OX40-expressing Jurkat cells; OX40L titrated against 0.2 µg/mL Hu3738 (competitor)
# [7] = target: T1, human OX40 expressed on cells; assay: flow cytometry on Jurkat NF-κB reporter cells expressing human OX40
# Procedure: A Jurkat NF-κB reporter cell line expressing human OX40 protein was cultured in DMEM containing 10% FBS and penicillin/streptomycin (pen/strep). For the binding assay, each cell line was resuspended at 5 million cells per mL. 50 μL (250,000 cells)/well were transferred to each well of a 500 μL polypropylene 96-well plate (Nunc). A 2× stock of test anti-OX40 antibody or isotype control mAb was prepared in a separate dilution plate at 666, 333, 111, 37.03, 12.34, 4.11, 0.457, 0.152, 0.0508, 0.0169, 0.00564 nM in culture media. Each antibody (50 μL/well) was transferred into respective wells of the assay plate. Cells were incubated with the test anti-OX40 antibody or isotype control antibodies for 30 minutes at 4° C. and washed twice with 250 μL/well of PBS by centrifuging at 800 rpm for 3 minutes. Bound antibody was detected with Cy5-Donkey anti-human IgG (H+L) (Jackson ImmunoResearch) diluted to 2 μg/mL (50 μL/well) in PBS for 30 minutes at 4° C. Cells were washed once with 250 μL/well of PBS, resuspended in PBS containing 1% Formaldehyde and analyzed on a dual laser FACSCalibur (Becton Dickinson).
"EC50 With Cross-linker (nM), NF-κB signaling [2]","EC50 Without Cross-linker (nM), NF-κB signaling [2]",Kd [5],koff [5],Molecule,also measured
–,–,–,–,Isotype control antibody,"EC50 With Cross-linker (nM), NF-κB signaling [1]: > 100 µg/mL; EC50 Without Cross-linker (nM), NF-κB signaling [1]: > 100 µg/mL"
0.34 nM,> 100 µg/mL,–,–,"119-122 (antibody, human IgG1, V domains shown) VH: EVQLVESGGGLVQPGGSLRLSCAASEYEFPSHDMSWVRQAPGKGLELVAAINSDGGSTYYPDTMERRFTISRDNAKNSLYLQMNSLRAEDTAVYYCARHYDDYYAWFAYWGQGTMVTVSS VL: EIVLTQSPATLSLSPGERATLSCRASKSVSTSGYSYMHWYQQKPGQAPRLLIYLASNLESGVPARFSGSGSGTDFTLTISSLEPEDFAVYYCQHSRELPLTFGGGTKVEIK",–
–,–,–,–,"1A7 (antibody, human IgG1, V domains shown, 2015/0307617; also called literature anti-OX40 antibody 1A7) VH: EVQLQQSGPELVKPGASVKISCKASGYTFTDSYMSWVKQSHGKTLEWIGDMYPDNGDSSYNQKFREKVTLTVDKSSTTAYMEFRSLTSEDSAVYYCVLAPRWYFSVWGTGTTVTVSS VL: DIQMTQTTSSLSASLGDRVTISCRASQDISNYLNWYQQKPDGTVKLLIYYTSRLRSGVPSRFSGSGSGKDYFLTISNLEQEDVAAYFCQQGHTLPPTFGGGTKLEIK","EC50 With Cross-linker (nM), NF-κB signaling [3]: 0.066 nM; EC50 Without Cross-linker (nM), NF-κB signaling [3]: > 100 µg/mL; IC50 (read off the curve) [4]: ~0.6 µg/mL"
–,–,360 nM,0.016 s⁻¹,"Hu3739 (antibody, V domains shown, Humanized antibody; also called Hu3739 VH.1b / Hu3739 VL.1b) VH: EVQLVQSGAEVKKPGSSVKVSCKASGFNIKDTYMHWVRQAPGQGLEWIGRIDPANGNTKYDPKFQGRATITADTSTNTAYMELSSLRSEDTAVYYCARGGPAWFVYWGQGTLVTVSS VL: DIQMTQSPSSLSASVGDRVTITCRASQDISNYLNWYQQKPGKAPKLLIYYTSRLRSGLPSRFSGSGSGTDYTLTISSLQPEDFATYYCQQGNTLPWTFGGGTKVEIKR",–
–,–,3000 nM,0.31 s⁻¹,"Hu3741 (antibody, V domains shown, Humanized antibody; also called Hu3741 VH.2b / Hu3741 VL.1c) VH: EVQLVESGGGLVQPGGSLRLSCAVSGFSLTSYGVHWVRQAPGKGLEWLGVIWSGGSTDYNAAFISRLTISKDNSKSTVYLQMNSLRAEDTAVYYCAREEFDYWGQGTTVTVSS VL: DIQMTQSPSSLSASVGDRVTITCRASQDISNYLNWFQQKPGKAPKLLIYYTSRLHSGVPSRFSGSGSGTDYTLTISSLQPEDFATYYCQQGYTLPPTFGGGTKVEIKR",–
–,–,–,–,"soluble human OX40 ligand (OX40L) (ligand, also called CD252; TNFSF4) QVSHRYPRIQSIKVQFTEYKKEKGFILTSQKEDEIMKVQNNSVIINCDGFYLISLKGYFSQEVNISLHYQKDEEPLFQLKKVRSVNSLMVASLTYKDKVYLNVTTDNTSLDDFHVNGGELILIHQNPGEFCVL",IC50 [6]: 0.067 nM and 0.01 µg/mL
0.5 nM,> 100 µg/mL,9.1 nM,0.11 s⁻¹,"18D8 (antibody, human IgG1, V domains shown, also called literature anti-OX40 antibody 18D8) VH: EVQLVESGGGLVQPGRLSRLSCAASGFTFDDYAMHWVRQAPGKGLEWVSGISWNSGSIGYADSVKGRFTISRENAKNSLYLQMNSLRAEDTALYYCAKDQSTADYYFYYGMDVWGQGTTVTVSS VL: EIVVTQSPATLSLSPGERATLSCRASQSVSSYLAWYQQKPGQAPRLLIYDASNRATGIPARFSGSGSGTDFTLTISSLEPEDFAVYYCQQRSNWPTFGQGTKVEIK",EC50 [7]: 0.258 µg/mL
0.63 nM,> 100 µg/mL,–,–,"106-222 (antibody, human IgG1, V domains shown, 2013/0280275) VH: QVQLVQSGSELKKPGASVKVSCKASGYTFTDYSMHWVRQAPGQGLKWMGWINTETGEPTYADDFKGRFVFSLDTSVSTAYLQISSLKAEDTAVYYCANPYYDYVSYYAMDYWGQGTTVTVSS VL: DIQMTQSPSSLSASVGDRVTITCKASQDVSTAVAWYQQKPGKAPKLLIYSASYLYTGVPSRFSGSGSGTDFTFTISSLQPEDIATYYCQQHYSTPRTFGQGTKLEIK",IC50 (read off the curve) [4]: ~1 µg/mL
